The text below walks through data of paper PMC7263589, “Integration of phage and yeast display platforms: A reliable and cost effective approach for binning of peptides as displayed on-phage” (PLoS ONE, 2020).

Broadly, the IC50 is the concentration at which inhibition is half-maximal. A higher IC50 goes with weaker potency. As a reminder, the Kd is a measure of binding affinity in units of concentration. Usually koff stands for the first-order rate constant of dissociation. The term kon denotes the rate constant with which the complex forms. A higher kon goes with faster complex formation.

Ends that are not written are not given here.

Experiment [1] deals with T1, IL-23-HIS (human, UniProt Q9NPF7 20-189; P29460 23-328).
T1 construct: IL-23 p19 subunit, human; IL-12/IL-23 p40 subunit, human; also called IL-23 only; IL-23 protein
T1 sequence (looked up) 1: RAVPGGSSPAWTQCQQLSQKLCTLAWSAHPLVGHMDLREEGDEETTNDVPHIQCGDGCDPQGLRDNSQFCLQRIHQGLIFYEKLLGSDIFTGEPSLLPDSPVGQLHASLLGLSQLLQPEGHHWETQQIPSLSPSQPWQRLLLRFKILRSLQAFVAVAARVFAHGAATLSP
T1 sequence (looked up) 2: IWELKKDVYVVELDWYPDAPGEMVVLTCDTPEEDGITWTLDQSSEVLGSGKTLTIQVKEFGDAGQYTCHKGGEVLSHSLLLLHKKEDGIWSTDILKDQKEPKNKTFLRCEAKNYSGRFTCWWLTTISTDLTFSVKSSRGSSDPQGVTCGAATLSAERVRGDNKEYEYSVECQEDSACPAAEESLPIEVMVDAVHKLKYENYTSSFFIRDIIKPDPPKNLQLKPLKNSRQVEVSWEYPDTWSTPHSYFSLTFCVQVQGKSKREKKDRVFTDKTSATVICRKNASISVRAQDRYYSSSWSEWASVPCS
Description: SPR; competition SPR, 25°C; IL-23R-Fc-AVI (<1000 RU) captured on Protein-A; 20 nM IL-23 mixed with one concentration of peptide or cold IL-23R injected 30 s; 10 mM HEPES pH 7.5, 150 mM NaCl, 0.005% P20, 1% BSA; n = 1. Particulars: both partners purified.

Experiment [2] concerns the target T2, IL-23-AVI (human, UniProt Q9NPF7 20-189; P29460 23-328).
T2 construct: IL-23 p19 subunit, human; IL-12/IL-23 p40 subunit, human; Captured on streptavidin chips and beads, so biotinylation of the Avi tag is implied; also called Avi-tagged IL-23; recombinant IL-23
T2 sequence (looked up) 1: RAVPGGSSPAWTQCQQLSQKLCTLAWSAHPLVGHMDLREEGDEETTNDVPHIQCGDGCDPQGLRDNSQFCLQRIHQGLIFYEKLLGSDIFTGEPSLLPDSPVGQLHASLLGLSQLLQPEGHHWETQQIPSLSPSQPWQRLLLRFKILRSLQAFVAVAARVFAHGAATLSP
T2 sequence (looked up) 2: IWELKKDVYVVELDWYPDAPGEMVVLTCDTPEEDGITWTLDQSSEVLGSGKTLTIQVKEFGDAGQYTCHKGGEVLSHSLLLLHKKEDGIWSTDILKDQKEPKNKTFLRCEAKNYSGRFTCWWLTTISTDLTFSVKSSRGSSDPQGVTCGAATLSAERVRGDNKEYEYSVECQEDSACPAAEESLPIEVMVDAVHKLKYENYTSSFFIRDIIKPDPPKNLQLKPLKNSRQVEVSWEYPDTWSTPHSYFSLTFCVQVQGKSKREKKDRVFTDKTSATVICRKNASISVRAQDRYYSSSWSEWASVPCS
The experiment can be described thus: AlphaScreen or HTRF; TR-FRET; compounds pre-incubated with IL-23R-FLAG 1 h, then IL-23-AVI; Europium-streptavidin and anti-FLAG-allophycocyanin; 25 mM HEPES, 150 mM NaCl, 0.02% Tween 20, 0.1% BSA, pH 7.4, 1% DMSO; n = 1. As to conditions: both partners purified. In general terms: Alpha assays give light when donor and acceptor beads are brought close together.

The target of experiment [3] is T2, IL-23-AVI. The experiment can be described thus: AlphaScreen or HTRF; AlphaLISA; IL-23-AVI (1.5 nM) pre-incubated with peptide 30 min, then FLAG-tagged IL-23R (3 nM); streptavidin donor and anti-FLAG acceptor beads; 25 mM HEPES pH 7.4, 150 mM NaCl, 0.02% Tween 20, 0.1% BSA; room temperature; n = 1. As to conditions: both partners purified.
The target in experiment [4] is T2, IL-23-AVI. The experiment can be described thus: SPR; Biacore T200, 25°C, 50 μl/min; 2000–9000 RU of IL-23-AVI captured to streptavidin chip, peptides as analyte (3-fold series, up to 30 μM); 10 mM HEPES pH 7.5, 150 mM NaCl, 0.005% P20, 3% DMSO; multi-cycle, single cycle kinetics for 23–652; 1:1 model; n = 1. Particulars: both partners purified. A general note: SPR reads the build-up and loss of mass on a sensor chip optically.

Experiment [5] addresses T3, Fluorescently labeled IL-23R, Q5VWK5.
T3 chain: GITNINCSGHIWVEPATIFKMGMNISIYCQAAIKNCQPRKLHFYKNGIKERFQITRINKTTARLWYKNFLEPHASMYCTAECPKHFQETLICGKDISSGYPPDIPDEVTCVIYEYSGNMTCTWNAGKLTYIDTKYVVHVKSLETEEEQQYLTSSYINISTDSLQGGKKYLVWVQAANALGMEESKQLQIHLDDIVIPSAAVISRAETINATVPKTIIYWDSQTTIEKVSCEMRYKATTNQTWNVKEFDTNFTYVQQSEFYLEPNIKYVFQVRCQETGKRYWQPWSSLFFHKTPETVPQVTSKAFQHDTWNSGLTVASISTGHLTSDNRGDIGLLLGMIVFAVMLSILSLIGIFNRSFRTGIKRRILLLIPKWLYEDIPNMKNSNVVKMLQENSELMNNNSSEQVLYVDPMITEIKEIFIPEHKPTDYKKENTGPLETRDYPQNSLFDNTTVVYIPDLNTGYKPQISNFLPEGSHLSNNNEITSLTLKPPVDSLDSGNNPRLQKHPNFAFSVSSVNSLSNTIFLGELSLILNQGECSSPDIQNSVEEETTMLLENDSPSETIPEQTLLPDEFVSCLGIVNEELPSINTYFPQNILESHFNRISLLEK
The experiment can be described thus: flow cytometry on yeast-displayed IL-23. As to conditions: chain shown with the change; n = 1; parent: est. 1.05; read off a plot. Background: In flow cytometry, cells or beads pass a laser one at a time.

For experiment [6], the target named is T2, IL-23-AVI. Description: SPR; Biacore T200, 25°C; 200–1000 RU of IL-23-AVI captured to streptavidin chip, IL-23R-FLAG-HIS as analyte, single cycle kinetics; 1:1 model. Particulars: both partners purified.

B1: peptide 23–437 (free, chemically synthesized) (peptide)
peptide: FTKEIDSWWLSLMSS
notes: selected from a peptide phage library against IL-23; No cysteines, 15 residues; source: synthetic peptide (CPC Scientific)
Regarding B1, the “% inhibition of IL-23 binding to immobilised IL-23R (peptide at 30 μM)” value (shortened to “% inhibition of IL-23 binding”) in experiment [1] is 57.6%. This molecule came in with an IC50 in experiment [2] of 7 µM. In experiment [3], this molecule had an IC50 of 1.4 µM. In experiment [4], this molecule had a Kd of 10.5 µM, a koff of 1.86 s⁻¹ and an on-rate (kon) of 178000 M⁻¹ s⁻¹.

B2: wild-type IL-23 displayed on yeast, Q9NPF7;P29460 K145A (protein)
chain 1: RAVPGGSSPAWTQCQQLSQKLCTLAWSAHPLVGHMDLREEGDEETTNDVPHIQCGDGCDPQGLRDNSQFCLQRIHQGLIFYEKLLGSDIFTGEPSLLPDSPVGQLHASLLGLSQLLQPEGHHWETQQIPSLSPSQPWQRLLLRFAILRSLQAFVAVAARVFAHGAATLSP
chain 2: IWELKKDVYVVELDWYPDAPGEMVVLTCDTPEEDGITWTLDQSSEVLGSGKTLTIQVKEFGDAGQYTCHKGGEVLSHSLLLLHKKEDGIWSTDILKDQKEPKNKTFLRCEAKNYSGRFTCWWLTTISTDLTFSVKSSRGSSDPQGVTCGAATLSAERVRGDNKEYEYSVECQEDSACPAAEESLPIEVMVDAVHKLKYENYTSSFFIRDIIKPDPPKNLQLKPLKNSRQVEVSWEYPDTWSTPHSYFSLTFCVQVQGKSKREKKDRVFTDKTSATVICRKNASISVRAQDRYYSSSWSEWASVPCS
B2: the ratio to parent in experiment [5] amounted to 0.18.

B3: wild-type IL-23 displayed on yeast, Q9NPF7;P29460 W137A (protein)
chain 1: RAVPGGSSPAWTQCQQLSQKLCTLAWSAHPLVGHMDLREEGDEETTNDVPHIQCGDGCDPQGLRDNSQFCLQRIHQGLIFYEKLLGSDIFTGEPSLLPDSPVGQLHASLLGLSQLLQPEGHHWETQQIPSLSPSQPAQRLLLRFKILRSLQAFVAVAARVFAHGAATLSP
chain 2: IWELKKDVYVVELDWYPDAPGEMVVLTCDTPEEDGITWTLDQSSEVLGSGKTLTIQVKEFGDAGQYTCHKGGEVLSHSLLLLHKKEDGIWSTDILKDQKEPKNKTFLRCEAKNYSGRFTCWWLTTISTDLTFSVKSSRGSSDPQGVTCGAATLSAERVRGDNKEYEYSVECQEDSACPAAEESLPIEVMVDAVHKLKYENYTSSFFIRDIIKPDPPKNLQLKPLKNSRQVEVSWEYPDTWSTPHSYFSLTFCVQVQGKSKREKKDRVFTDKTSATVICRKNASISVRAQDRYYSSSWSEWASVPCS
As for B3, the ratio to parent in experiment [5] was 0.1.

B4: wild-type IL-23 displayed on yeast, Q9NPF7;P29460 L141A (protein)
chain 1: RAVPGGSSPAWTQCQQLSQKLCTLAWSAHPLVGHMDLREEGDEETTNDVPHIQCGDGCDPQGLRDNSQFCLQRIHQGLIFYEKLLGSDIFTGEPSLLPDSPVGQLHASLLGLSQLLQPEGHHWETQQIPSLSPSQPWQRLALRFKILRSLQAFVAVAARVFAHGAATLSP
chain 2: IWELKKDVYVVELDWYPDAPGEMVVLTCDTPEEDGITWTLDQSSEVLGSGKTLTIQVKEFGDAGQYTCHKGGEVLSHSLLLLHKKEDGIWSTDILKDQKEPKNKTFLRCEAKNYSGRFTCWWLTTISTDLTFSVKSSRGSSDPQGVTCGAATLSAERVRGDNKEYEYSVECQEDSACPAAEESLPIEVMVDAVHKLKYENYTSSFFIRDIIKPDPPKNLQLKPLKNSRQVEVSWEYPDTWSTPHSYFSLTFCVQVQGKSKREKKDRVFTDKTSATVICRKNASISVRAQDRYYSSSWSEWASVPCS
Regarding B4, the ratio to parent in experiment [5] was 0.1.

B5: peptide 23–447 (free, chemically synthesized) (peptide)
peptide: LECLYYLRWKVCDN
modifications: not fully specified (bridges); cysteine pairing not given here
notes: selected from a peptide phage library against IL-23; Two cysteines; source: synthetic peptide (CPC Scientific)
Consider B5, for which the “% inhibition of IL-23 binding” value in experiment [1] amounted to 78.7%. Inhibition in experiment [2] was half-maximal at 24 µM (IC50). In experiment [3], this molecule registered an IC50 of 6.7 µM. In addition, in experiment [4], the Kd is around 27.5 µM, the off-rate (koff) is around 1.33 s⁻¹ and the kon was around 48300 M⁻¹ s⁻¹.

B6: IL-23R-FLAG-HIS (receptor)
chain: GITNINCSGHIWVEPATIFKMGMNISIYCQAAIKNCQPRKLHFYKNGIKERFQITRINKTTARLWYKNFLEPHASMYCTAECPKHFQETLICGKDISSGYPPDIPDEVTCVIYEYSGNMTCTWNAGKLTYIDTKYVVHVKSLETEEEQQYLTSSYINISTDSLQGGKKYLVWVQAANALGMEESKQLQIHLDDIVIPSAAVISRAETINATVPKTIIYWDSQTTIEKVSCEMRYKATTNQTWNVKEFDTNFTYVQQSEFYLEPNIKYVFQVRCQETGKRYWQPWSSLFFHKTPETVPQVTSKAFQHDTWNSGLTVASISTGHLTSDNRGDIG
modifications: Soluble monomeric ectodomain, FLAG and His tags left out. Limits are not printed in the main text (constructs are in S1 Table of the supplement), so the mature extracellular domain from UniProt …
In experiment [6], B6 showed a Kd of 0.00892 µM, a koff of 0.00151 s⁻¹ and a kon of 170000 M⁻¹ s⁻¹.

B7: peptide 23–441 (free, chemically synthesized) (peptide)
peptide: QKITQCVYIIWTYPCLLNDV
notes: as for B5
In the case of B7, in experiment [1], the “% inhibition of IL-23 binding” value is 100%. Also, half-maximal inhibition in experiment [2] (IC50) required 5.7 µM. The molecule also gave an IC50 in experiment [3] of 2.5 µM. For the same molecule, in experiment [4], binding was characterised by a dissociation constant (Kd) of 0.911 µM, the koff was determined as 0.174 s⁻¹ and the kon is 190000 M⁻¹ s⁻¹.
